System: Escherichia coli TOP10
Assay: shrunken log2 fold change of peptide-encoding DNA abundance (4.5 h post-induction vs induction); higher = less antimicrobial activity (less host growth inhibition)
Conditions: time post-induction: 4.5 h; library: site-saturation at positions 5, 18, 19, 20
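Further: peptides expressed intracellularly from a pBAD plasmid library in pooled LB shake-flask culture, induced with 0.3% L-arabinose, DNA abundance read by NGS, three biological replicates, DESeq2 with apeglm shrinkage.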

Sequence | shrunken log2 fold change
RRIRWRPPRLPRPRPRPSASPRP | 0.363
RRIRVRPPRLPRPRPRPGELPRP | -0.0483
RRIRGRPPRLPRPRPRPRHDPRP | 0.417
RRIRERPPRLPRPRPRPWPMPRP | 0.00819
RRIRLRPPRLPRPRPRPTSGPRP | 0.0882
RRIRKRPPRLPRPRPRPDAKPRP | 0.165
RRIRLRPPRLPRPRPRPYVAPRP | -0.602
RRIRIRPPRLPRPRPRPDTSPRP | -0.283
RRIRSRPPRLPRPRPRPDTLPRP | -0.126
RRIRFRPPRLPRPRPRPPVKPRP | -0.00563
RRIRARPPRLPRPRPRPFPMPRP | 0.335
RRIRWRPPRLPRPRPRPWSQPRP | 0.298
RRIRPRPPRLPRPRPRPHTQPRP | 0.0349
RRIRGRPPRLPRPRPRPTRLPRP | 0.939
RRIRRRPPRLPRPRPRPSMSPRP | 0.0591
RRIRCRPPRLPRPRPRPELSPRP | 0.52
RRIRWRPPRLPRPRPRPKGSPRP | 0.0359
RRIRPRPPRLPRPRPRPFYSPRP | -0.161
RRIRDRPPRLPRPRPRPAPRPRP | 1.07
RRIRYRPPRLPRPRPRPVMVPRP | -0.139

Sequence | shrunken log2 fold change
RRIRQRPPRLPRPRPRPFCIPRP | -0.641
RRIRFRPPRLPRPRPRPFWPPRP | 0.234
RRIRRRPPRLPRPRPRPSGKPRP | 0.845
RRIRGRPPRLPRPRPRPIFDPRP | 0.378
RRIRHRPPRLPRPRPRPMISPRP | -0.442
RRIRDRPPRLPRPRPRPTEKPRP | 0.0633
RRIRIRPPRLPRPRPRPLFHPRP | -0.779
RRIRKRPPRLPRPRPRPYPQPRP | 0.0235
RRIRLRPPRLPRPRPRPFLYPRP | -0.656
RRIRGRPPRLPRPRPRPQDYPRP | -0.0805
RRIRTRPPRLPRPRPRPQTKPRP | 0.0553
RRIRFRPPRLPRPRPRPEMAPRP | 0.635
RRIRARPPRLPRPRPRPSYYPRP | -0.731
RRIRGRPPRLPRPRPRPLNIPRP | -0.148
RRIRQRPPRLPRPRPRPAHAPRP | 0.0691
RRIRTRPPRLPRPRPRPPKGPRP | 0.107
RRIRNRPPRLPRPRPRPYLIPRP | -0.0464
RRIRPRPPRLPRPRPRPGMPPRP | -0.074
RRIRRRPPRLPRPRPRPNANPRP | 0.58
RRIRGRPPRLPRPRPRPKRRPRP | 1.3

Sequence | shrunken log2 fold change
RRIRNRPPRLPRPRPRPGWEPRP | 1.72
RRIRNRPPRLPRPRPRPWSTPRP | -0.0852
RRIRFRPPRLPRPRPRPKAHPRP | -0.0835
RRIRPRPPRLPRPRPRPIYPPRP | -0.269
RRIRLRPPRLPRPRPRPWTRPRP | -0.148
RRIRMRPPRLPRPRPRPVWWPRP | -0.0717
RRIRRRPPRLPRPRPRPWQEPRP | 0.00489
RRIRLRPPRLPRPRPRPVAGPRP | 0.0563
RRIRERPPRLPRPRPRPDKKPRP | 0.0282
RRIRLRPPRLPRPRPRPPKHPRP | 0.117
RRIRHRPPRLPRPRPRPKFAPRP | 0.00298
RRIRCRPPRLPRPRPRPIRWPRP | 0.034
RRIRYRPPRLPRPRPRPHKGPRP | -0.29
RRIRIRPPRLPRPRPRPYLCPRP | -0.0937
RRIRNRPPRLPRPRPRPQYAPRP | -0.0234
RRIRIRPPRLPRPRPRPHGGPRP | -0.0479
RRIRLRPPRLPRPRPRPKRAPRP | 0.203
RRIRWRPPRLPRPRPRPKVYPRP | -0.0533
RRIRWRPPRLPRPRPRPEIPPRP | -0.142
RRIRRRPPRLPRPRPRPACVPRP | 0.451

— the supplement of paper PMC9112550, “Optimization of the antimicrobial peptide Bac7 by deep mutational scanning” (BMC Biology, 2022)
